What was measured:
TAGT-8 (human) [1] = test: BLI (Octet), antigen-Fc on AHC sensor
TAGT-8M (mouse) [2] = test: BLI (Octet), antigen-Fc on AHC sensor
TAGT-8H (human) [3] = test: BLI (Octet RED96), antigen-Fc on AHC sensor, Fab in solution
TAGT-8M (mouse) [4] = test: as above
TAGT-8 (human) [5] = test: BLI (Octet RED96), antigen Fc-His on AHC sensor, Fab in solution
TAGT-8M (mouse) [6] = test: as above
TAGT-6 (human) [7] = test: BLI (Octet), antigen-Fc on AHC sensor
TAGT-6 (human) [8] = test: BLI Octet RED96, antigen-Fc on AHC sensor, Fab analyte
TAGT-6 (human) [9] = test: BLI (Octet RED96), antigen-Fc on AHC sensor, Fab in solution
TAGT-8 (human) [10] = test: BLI Octet, antigen-Fc on AHC sensor, Fab analyte
TAGT-8H (human) [11] = test: BLI (Octet), antigen-Fc captured, Fab in solution
TAGT-8H (human) [12] = test: BLI Octet RED96, antigen-Fc on AHC sensor, Fab analyte
TAGT-8 (human) [13] = test: BLI, Octet RED96, antigen-Fc on AHC sensor, Fab in solution
TAGT-12 (human) [14] = test: BLI Octet RED96, antigen-Fc on AHC sensor, Fab analyte
TAGT-12 (human) [15] = test: BLI, Octet RED96, antigen-Fc on AHC sensor, Fab in solution
TAGT-12 (human) [16] = test: BLI (Octet RED96), antigen Fc-His on AHC sensor, Fab in solution
TAGT-12 (human) [17] = test: BLI (Octet), antigen-Fc on AHC sensor
TAGT-12 (human) [18] = test: BLI (Octet RED96), antigen-Fc on AHC sensor, Fab in solution
TAGT-6 (human) [19] = test: BLI Octet, antigen-Fc on AHC sensor, Fab analyte
TAGT-6 (human) [20] = test: BLI (Octet RED96), antigen Fc-His on AHC sensor, Fab in solution

B1: Hit ID 4027 (Fab, V domains shown)
VH: EVQLVESGGGLVQPGGSLRLSCAASGYSITSGHHWNWIRQAPGKGLEWIGWISPSSGGTKYAQKFQGRVTISRDNSKNTLYLQLNSLRAEDTAVYYCARGFDGFHYWGQGTLVTVSS
VL: DIQLTQSPSSLSASVGDRVTITCRASESVDFYGISFLPWYQQKPGKAPKLLIYDASNRATGIPSRFSGSGSGTDFTLTISSLQPEDFATYYCQQSYSWPWTFGQGTKVEIKR
Kd (TAGT-8 (human) [1]): 1.55 nM | Kd (TAGT-8M (mouse) [2]): 3.81 nM | Kd (TAGT-8H (human) [3]): 1.55 nM | Kd (TAGT-8M (mouse) [4]): 3.81 nM | Kd (TAGT-8 (human) [5]): 1.55 nM | Kd (TAGT-8M (mouse) [6]): 3.81 nM

B2: Hit ID 5404 (Fab, V domains shown)
VH: EVQLVESGGGLVQPGGSLRLSCAASGYSISSGYHWAWIRQAPGKGLEWIGEIYHSGSTYYSPSLKSRVTISRDNSKNTLYLQLNSLRAEDTAVYYCARSPYYYGVFDYWGQGTLVTVSS
VL: DIQLTQSPSSLSASVGDRVTITCSASSRVGSVYWYQQKPGKAPKLLIYDASNLETGVPSRFSGSGSGTDFTLTISSLQPEDFATYYCQQYTHDPVTFGQGTKVEIKR
Kd (TAGT-6 (human) [7]): 3.3 nM | Kd (TAGT-6 (human) [8]): 3.3 nM | Kd (TAGT-6 (human) [9]): 3.3 nM

B3: Hit ID 4034 (Fab, V domains shown)
VH: EVQLVESGGGLVQPGGSLRLSCAASGYSISSGHYWNWIRQAPGKGLEWVSSISGYGSTTYYADSVKGRFTISRDNSKNTLYLQLNSLRAEDTAVYYCARERYYGSTDYAFDYWGQGTLVTVSS
VL: DIQLTQSPSSLSASVGDRVTITCSASSRVSHVFWYQQKPGKAPKLLIYAASTLQSGVPSRFSGSGSGTDFTLTISSLQPEDFATYFCLQGTHFPWTFGQGTKVEIKR
Kd (TAGT-8 (human) [10]): 4.27 nM | Kd (TAGT-8H (human) [11]): 4.27 nM | Kd (TAGT-8 (human) [5]): 4.27 nM

B4: Hit ID 4036 (Fab, V domains shown)
VH: EVQLVESGGGLVQPGGSLRLSCAASGFSLSTSGVGVGWIRQAPGKGLEWIGEIYHSGSTYYSPSLKSRVTISRDNSKNTLYLQLNSLRAEDTAVYYCARERYGSYYFDYWGQGTLVTVSS
VL: DIQLTQSPSSLSASVGDRVTITCRASQSVDFYGKSFLDWYQQKPGKAPKLLIYDASSLESGVPSRFSGSGSGTDFTLTISSLQPEDFATYYCQQYYRIPPTFGQGTKVEIKR
Kd (TAGT-8 (human) [1]): 3.13 nM | Kd (TAGT-8H (human) [12]): 3.13 nM | Kd (TAGT-8 (human) [13]): 3.13 nM

B5: Hit ID 6010 (Fab, V domains shown)
VH: EVQLVESGGGLVQPGGSLRLSCAASGYSISSGHYWNWIRQAPGKGLEWIGWINPNRGDTNYAQKFQGRVTISRDNSKNTLYLQLNSLRAEDTAVYYCARDYYGDFDYWGQGTLVTVSS
VL: DIQLTQSPSSLSASVGDRVTITCRASQSISSYLNWYQQKPGKAPKLLIYDASNLETGVPSRFSGSGSGTDFTLTISSLQPEDFATYYCQHHYGTPLTFGQGTKVEIKR
Kd (TAGT-12 (human) [14]): 28.3 nM | Kd (TAGT-12 (human) [15]): 28.3 nM | Kd (TAGT-12 (human) [16]): 28.3 nM

B6: Hit ID 7097 (Fab, V domains shown)
VH: EVQLVESGGGLVQPGGSLRLSCAASGYSISSGHHWDWIRQAPGKGLEWVSYISGAGDTTYYADSVKGRFTISRDNSKNTLYLQLNSLRAEDTAVYYCAREGSDAVLGDWFAYWGQGTLVTVSS
VL: DIQLTQSPSSLSASVGDRVTITCRASQGISSYLAWYQQKPGKAPKLLIYDASNLETGVPSRFSGSGSGTDFTLTISSLQPEDFATYYCQQYYSTPLTFGQGTKVEIKR
Kd (TAGT-6 (human) [7]): 24.3 nM | Kd (TAGT-6 (human) [8]): 24.3 nM | Kd (TAGT-6 (human) [9]): 24.3 nM

B7: Hit ID 5115 (Fab, V domains shown)
VH: EVQLVESGGGLVQPGGSLRLSCAASGYSISSGHYWGWIRQAPGKGLEWIGEIYHSGSTYYSPSLKSRVTISRDNSKNTLYLQLNSLRAEDTAVYYCARESYYAFDYWGQGTLVTVSS
VL: DIQLTQSPSSLSASVGDRVTITCRASQSVSSYLAWYQQKPGKAPKLLIYAASTLQSGVPSRFSGSGSGTDFTLTISSLQPEDFATYYCQQYYTTPLTFGQGTKVEIKR
Kd (TAGT-12 (human) [17]): 11.6 nM | Kd (TAGT-12 (human) [18]): 11.6 nM

B8: Hit ID 7040 (Fab, V domains shown)
VH: EVQLVESGGGLVQPGGSLRLSCAASGYSISSGYYWNWIRQAPGKGLEWIGWISPSGGSTNYAQKFQGRVTISRDNSKNTLYLQLNSLRAEDTAVYYCARDLTAGGFDYWGQGTLVTVSS
VL: DIQLTQSPSSLSASVGDRVTITCRASQGISSYLAWYQQKPGKAPKLLIYDASNLETGVPSRFSGSGSGTDFTLTISSLQPEDFATYYCQQYYSTPLTFGQGTKVEIKR
Kd (TAGT-8 (human) [10]): 27.2 nM | Kd (TAGT-8H (human) [12]): 27.2 nM | Kd (TAGT-8H (human) [3]): 27.2 nM

B9: Hit ID 7183 (Fab, V domains shown)
VH: EVQLVESGGGLVQPGGSLRLSCAASGYSISSGHYWNWIRQAPGKGLEWVSSISGYGDTTYYADSVKGRFTISRDNSKNTLYLQLNSLRAEDTAVYYCAREGSDTVLGDWFAYWGQGTLVTVSS
VL: DIQLTQSPSSLSASVGDRVTITCRASQSISSYLNWYQQKPGKAPKLLIYDASNRATGIPSRFSGSGSGTDFTLTISSLQPEDFATYYCQQSYSTPPTFGQGTKVEIKR
Kd (TAGT-6 (human) [19]): 14.8 nM | Kd (TAGT-6 (human) [9]): 14.8 nM | Kd (TAGT-6 (human) [20]): 14.8 nM

— patent US20200248336A1
